Experimental data published in the RNAGym collection of RNA variant scans (doi:10.1073/pnas.2313332121).

B1: TPR t1 (parent)
chain: GACCAAUCUGCCCUCAGAGCUCGAGAACAUCUUCGGAUGCAGAGGAGGCAGGCUUCGGUGGCGCGAUAGCGCCAACGUCCUCAACCUCCAAUGCAUCCCACCACAUGAUGAUGCCUGAAGAGCCUUGGUUUUUUG

Variants of: B1
Experiment: polymerase ribozyme fitness, log enrichment relative to wild type (log ratio); higher = more active; in vitro selection for triplet polymerase activity
Procedure, shortened: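 The heterodimeric triplet polymerase ribozyme's subunits were each mutagenized into PCR-built libraries and transcribed. Every library was selected once, in triplicate, by annealing with a biotinylated primer, the partner subunit and triplets, incubating frozen at −7 °C, gel-excising extended constructs, capturing on streptavidin beads and running RT-PCR. Input and output libraries were Illumina-sequenced, with genotypes kept only at ≥10 input reads and ≥1 read per output. Fitness, from inverse-variance-weighted replicate averages, is the base-2 logarithm of genotype enrichment over wild-type enrichment.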

In order of falling “polymerase ribozyme fitness (log ratio)” value:
1. GACCAAUCUGCCCUCAGAGCUCGAGAACAUCCUCGGAUGCAGAGGAGGCAGGCUUCGGUGGCGCGAUAGCGCCAACGUCCUCAACCUCCAAUGCAUCCCACCACAUGAUGAUGCCUGAGGAGCCUUGGUUUUUUG [U32C A119G]  0.645
2. GACCAAUGUGCCCUUAGAGCUCGAGAACAUCUUCGGAUGCAGAGGAGCCAGGCUUCGGUGGCGCGAUAGCGCCAACGUCCUCAACCUCCAAUGCAUCCCACCACAUGAUGAUGCCUGAAGAGCGUUGGUUUUUUG [C8G C15U G48C C124G]  0.169
3. GACCAAUCUGGCCUCAGAGCUCGAGAACAUCUUCGGAUGCAGAGGAGGCAGGCUUCGGUGGUGCGAUAGCGCCAACGUCCUCAACCUCCAAUGCAUCCCACCACAUGAUGAUGCCUGAAGAGCCUUGGUUUUUUG [C11G C62U]  -0.108
4. GACCAAUCUGCCCUCAGAGCUCGAGAACAUCUUCGGAUGCAGAGGAGGCAGGCUUCGGUGGCGCGAUAGCGCCAACGUCCUGAACCUCCAAUGCAUCCCACCACAUGAUGAUGCCUGAAAAGCCUUGGUUUUUUG [C82G G120A]  -0.124
5. GACCAAUCUGCCCUCAGAGCUCGAGAACAUCUUCGGAUGCAGAGGAGGCAGGCUUCGGUGGCGCGAUAGCGCAAACGUCCUCAACCUCCAAUGGAUCCCACCACAUGAUGAUGCCUGAAGAGCCUUGGUUUUUUG [C73A C94G]  -0.66
6. GACCAAUCUGCCCUCAGAGCUCGAGAACAUCUUCGGAUGCAGAAGAGGCAGGCUUCGGUGGCGCGAUAGCGCCAACGUCCUCAACCUCCAAUGCAUCCCACCACAUGAUGGUGCCUGAAGAGCCUUGGUUUUUUG [G44A A111G]  -0.69
7. GACCAGUCUGCCCUCAGAGCUCGAGAACAUCUUCGGAUGCAGAGGAGGCAGGCUUCGGUGGCGCGAUAGCGCCAACGUCCUCAACCUCCAAUGCAUCCCACCACAUGAUGAUACCUGAAGAGCCUUGGUUUUUUG [A6G G113A]  -0.703
8. GACCAAUCUGCCCUCAGAGCUCGAGAACAUCUUCGGAUGCAGAGGAGGGAGGCUUCGGUGGCGCGAUAGCGCCAACGUCCUCAACCUCCAAUACAUCCCACCACAUGAUGAUGCCUGAAGAGCCUUGGUUUUAUG [C49G G93A U133A]  -0.83
9. GGCCAAUCUGCCCUCAGAGCUCGAGAACAUCUUCGGAUGCAGAGGAGGCAGGCUGCGGUGGCGCGAUAGCACCAACGUCCUCAACCUCCAAUGCUUCCCACCACAUGAUGAUGCCUGAAGAGCCUUGGUUUUUUG [A2G U55G G71A A95U]  -1.12
10. GACCAAUCUGCCCUCAGAGCUCGAGAACAUCUUCGGAUGCAGAGGAGGCAGGCUUCGGUGCCGCGAUAGCGCCAACGUUCUCAACCUCCAAUGCAUCCCAGCACAUGAUGAUGCCUGAAGAGCCUUGGUUUUUUG [G61C C79U C101G]  -1.64
11. GACCAAUCUGCCCUCAGAGCUCGAGAACAUCUUCGGAUGCGGAGGAGGGAGGCUUCGGUGGCGCGAUAGCGCCAACGUCCUUAAUCUCCAAUGCAUCCCACCACAUGAUGAUGCCUGAAGAGCCUUGGUUGUUUG [A41G C49G C82U C85U U131G]  -1.67
12. GACCUAUCUGCCGUCAGAGCUCGAGAACAUCUUCGGAUGCAGAGGAGGCAGGCUUCGGUGGCGCGAUAGCGCCACAGUCCUCAACCUCCAAUGCAUCCCACCACAUGAUGAUGCCUGAAGAGCCUUGGUUUUUUG [A5U C13G A75C C76A]  -1.8
13. GACCAAUCUGCCCUCAGAGCUCGAGAACAUCUUCGGAUGCAGAAGAGGCAGGCUUCCGUGACGCGAUAGCGCCAACGUCCUCAACCUCCAAUGCAUCCCACCACAUGAUGACGCCUGAAAAGCCUUAGUUUUUUG [G44A G57C G61A U112C G120A G127A]  -1.81
14. GACCAAUCUGCCCUCAGAGUUCGAGAACAUCUUCGGAUGCAGAGGAGGCAGGCUUCGGUGGCGCGAUAGCGCCAACGUCCUCCACCUCCAAUGCAUCCCACCACAUGAUGAGGCCUGAAGAGCCUUGGUUUUUUG [C20U A83C U112G]  -2.09
15. GACGAAUCUGCCCUCAGAGUUCGAGAACAUCUUCGGAUGCAGAGGAGCCAGGCUUCGGUGGCACGAUAGCGCCAACGUCCUCAACCUCCAAUGCAUCCCACCACAUGAUGAUGCCUGAAGAGGCUUGGUUUUUUG [C4G C20U G48C G63A C123G]  -2.25
16. GACCAAUCUGCCCUCAGAGCUCGAGAACAUCUUCGGAUGCAGAGGAGGCAGGCUUCGGUGGCGCGAUAGCGCCAACGUCCUCAACCUGCAAUGCAUCCCACCACAGGAUGAUGCCUGAAGAGCCUUGGUUUUUUG [C88G U106G]  -2.4
17. GACCAAUCUGCCCUUAGAGCUCGAGAACAUCUUCGGAUGCAGAGGAGGCAGGCUUCGGUGGCGCGAUAGCGCUAACGUCCUCGACCUCCAAUGCAUCCCACCACAUGAUGAUGCCUGAAGAGCCUUGGUUUUUUG [C15U C73U A83G]  -2.56
18. GACCAAUCUGCCCUCAGAGCUCGAGAACAUCUUCGGCUUCAGAGGAGGCAGGCUUUGGUGGCGCGAUAGCGCCAACGUCCUCAACCUCCAAUGCAUCCCACCACAUGAUGAUGCCUGAAGAGCCUUGGUUUUUUG [A37C G39U C56U]  -2.66
19. GACCAAUCUGCCCUCAGAGCUCGAGAACAUCUUCGGAUGCAGAGGAGGCAGGCAUCGGUGGCGCGAUAUCGCCAACGUCCUCAACCUCCAAUGCAUCCCACCACAUGAUGAUGCCUGAAGAGCCUUGCUAUAUUG [U54A G69U G128C U130A U132A]  -2.67
20. GACCAAUCUGCCCGCAGAGCUCGAGAACAUCUUCGGAUGCAGAGGAGUCAGGCUUCGGUGGCGCGAUAGCGCCAACGUCCUCAACCUCCAAUGCAUCCCACCACAUGAUGAUGCCUGAAGAGCCUUGGUUUUUUG [U14G G48U]  -2.8
21. GACCAAUCUGCCCUCAGAGCUCGAGAACAUCUUCGGAUGCAGAGGAGGCAGGCUUCGGAGGCGCGAUAGCGCCAACGUCCUCAACCUCCAAUGCAUCCCAACACAUGAUGAUGACUGAAGAGCCUUGGUUUUUUG [U59A C101A C114A]  -2.95
22. GACCAAUCUGCCCUCAGAGCUCGAGAACAUCUUCGGAUGCAGAGGAGGCAGGCUUCGGUGGCGCGAUAGCGCCAACGUCCUCGUCCUCCAAUGCAUCCCACAACAUGAUGAAGCCUGAAGAGCCUUUGUUUUUUG [A83G A84U C102A U112A G127U]  -3.04
23. GACCAAUCUGCCCUUAGAGCUCGAGAACAUCUUCGGCUGCAGAGGAGGCAGGCUUCGGUGCCGCGAUAGCGCCAACGUCCUCAACCUCCAAUGCAUCCCACCACAUGAUGAUGCCUGAAGAGCCUUGGUUUUUUG [C15U A37C G61C]  -3.39
24. GACCAAUCUGCCCUCAGAGCUCGAGAACGUCUUCGGAUGCAGAGGAGGCAGGCUUCGGUGGCGCGAUAGCGCCAACGUCCUCAACCUCCAAUGCAUCCCAACACAUGAUGAUGCCUGUAGAGCCUUGGUUUUUUG [A29G C101A A118U]  -3.6
25. GACCAAUCUGCCCUCAGAGCUCGAGAACAUCUUCGGAUGCAGAGGAGGCAGGCUUCGGUGGCGCGAUGGCGCCAACGUCCUCAACCUCCAAUGCAUCCCACCACAUGAUGAUGCCUGAAGAGCCAUGGUUUUUUG [A68G U125A]  -3.61
26. GACCAAUCUGCCCUCAGAGCUCGAGAACAUCUUCGUAUGCAGAGGAGGCAGGCUUCGGUGGCGCGAUAGCGCCAACGUCCUCCACCUCCAAUGCAUCCCACCAUAGGAUGAUGCCUGAAGAGCCUUGGUUUUUUG [G36U A83C C104U U106G]  -3.91
27. GACCAAUCUGCCCUCAGAGCUCGAGAACAUCUUCGGAUGCAGAGGAGGCAGGCUUCGGUGGCGCGAUAACGCCAACGUCCUCAACCUCCAAUGCAUCCCACCACAUGAUGAUACCUGAAGAGCCUUCGUUUUUUG [G69A G113A G127C]  -3.93
28. GACCAAUCUGCCCUCAGAGCUCGAGAACAUCUUCGGAUGCAGAGGAGGCAGGCUUCGGUGGCGCGAUAUCGCGAACGUCCUCAACCUCCAAUGCAUCCCACCACUUGAUGAUGCCUGAAGAGCCUUGGUUUUUUG [G69U C73G A105U]  -4.07
29. GACCAAUCUGCCCUCAGAGCUCGAGAACAUCUUCGGAUGCAGAGUAGGCAGGCUUCGGUGGCGCGAUAGCGCCAACUUUCUCAACCUCCAAUGCAUCCCACCACAUGAUGAUGGCUGAAGAGCCUUGGUUUUUUG [G45U G77U C79U C114G]  -4.37
30. GACCAAUCUGCCCUCAGAGCUCGAGAUCAUCUUCGGAUGCAGAGGAGGCAGGCUUCGGUGGCGCGAUAGCGUCAACGUCCUCUACCUCCAAUGCAUCCCACCACAUGAUGAUGCCUGAAGAGCCUUAGUUUUUUG [A27U C72U A83U G127A]  -4.42
31. GACCAAUCUGCCCUCAAAGCUCGAGAACAUCUUCGGAUGCAGAGGAGGCAGGCUUCGGUGGCGCGAUAGCGCCAACGUCCUCAACGUCCAAUGCAUCCCACCACAUGAUGAUGCCUGAAGAGCCUUGGUUUUUUG [G17A C86G]  -4.48
32. GACCAGGCUGCCCUCAGCGCUCGAGAACAUCUUCGGAUGCAGAGGAGGCAGUCUUCGGUGGCGCGAUAGCGCCAACGUCCACAACCUCCAAUGCAUCCCACCACAUGAUGAUGCGUGAAGAGCCUUGGUUUUUUG [A6G U7G A18C G52U U81A C115G]  -4.51
33. GACCAAUCUGCCCUCAGAGCACGAGAACAUCUUCGGAUGCAGAGGAGGCAGGGGUCGGUGGCGCGAUAGCGCCAACGUCCUCAACCACCAAUGCAUCCCACCACAUGAUGAUGCCUGAAGAGCCUUGGUUUUUUG [U21A C53G U54G U87A]  -4.55
34. GACCAAUCUGCGCUCAGAGCUCGAGAACAUCUUCGGAUGCAGAGGAGGCAGGCUUCGGUGGCGCGAUAGCGCCAACGUCCUCAACCUCCAAUGCAUCCCACCUCAUGAUGAUGCCUGAAGAGCCUUGGUUUUUUG [C12G A103U]  -4.83
35. GACCAAUCUGCCCUCAGAGCUCGAGAACAUCUUCGGAUGCAGAGGAGGCAGGAUUCGGUGCCGCGAUAGCGCCAACGUCCUCAACCUCCAAUGCAUCCCACCACAUGAUAAUGCCUGAUGAGCCUUGGUUUUAUG [C53A G61C G110A A119U U133A]  -4.96
36. GACCAAUCUGCCCUCAGAGCUCGAGAACAUCUUCGGAUGCAGAGGAGGCAGGCUUCCGUGGCGCGAUAGCGCCAACGUCCUCAACCUCCGAUGCAUCCCACCACAUGAUGAUUCAUGAAGAGCCUUGGUUUUUUG [G57C A90G G113U C115A]  -5.11
37. GACCAAUCUGCCCUCAGAGCUCGAGAACAUCUUCCGAUGCAGAGGAGGCAGGCUUCGGUGGCGCGAUAGCGCCAACGUCCACAACCUCCAAUGCAUCCCACCACAUGAAGAUGACUGAAGAGGCUUGGUUUUUUG [G35C U81A U109A C114A C123G]  -5.16
38. GACCAAUCUGCCCUCAGAGCUCGAGAACAUCUUCGGAUGCAGAGUAGGCAGGCUUCGGGGGCGCGAUAGCGCCAACGUCCUCGACCUCCAAUGCAUCCCACCACAUGAUGAUGCUUGAAGAGCCUUGGUUUUUUG [G45U U59G A83G C115U]  -5.27
39. GACCAAUCUGCCCUCAGAGCUCGAGAACAUCUUCGGAUGCAGAGGAGGCAGGCUUCGGUGGCGCGAUAGCGCUAACGUCCUCAACCUCCAAUGCAUACCACCACACGAUGAUGCCUGAAGAGCCUUGGUUUUUUG [C73U C97A U106C]  -5.37
40. GACCAAUCUGCCCUCAGAGCUCGAGAACAUCUUCGGAUGCAGAGGAGGCAGGCUUCGGUGGCGCGAUAGCGCCAACGUACUCAACCUCCAAUGCAUCCAACCACAUGAUGAUGCCUGAAGAGCCUUGGUUUUUUG [C79A C99A]  -6.57
41. GACCAAUCUGACCUCAGAGCUCGAGAACAUCUUCGGAUGCAGAGUAGGCAGGCUUCGGUGGCGCGAUAGCGCCAACGUCCUCAACCUCCAAUGCCUCCCACCACAUGAUGAUUCCUGAAGAGCCUUGGUUUUUUG [C11A G45U A95C G113U]  -7.14
42. GACCAAUCUGUCCUCAGAGCUCGAGAACAUCUUCGGAUGCAGAGGAGGCAGGCUUCGGUGGCGCGAUAGCACCAACGUCCUCAACCUCCAAUGCAUCUCACCACUUGAUUAUGCCUGAAGAUCAUUGGUUUUUUG [C11U G71A C98U A105U G110U G122U C124A]  -7.92
